# Source: the nanobody polyreactivity screen of Harvey et al. (2022)
# Assay: yeast display, Sf9 membrane polyspecificity reagent, FACS + sequencing; frameworks hold sequencing errors
# In short: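 After 36–48 hours of galactose induction, yeast (Saccharomyces cerevisiae BJ5465) displaying a synthetic nanobody library were stained at 4 °C for 1 hour with 10% biotinylated, detergent-solubilized Sf9 membrane reagent. Streptavidin microbeads enriched the stained cells before FACS sorting into low and high (top ~1%) gates on anti-HA and streptavidin fluorescence. Each clone's polyreactivity label reflects its gate of origin.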
row,Sequence,polyreactivity (PSR sort gate)
1,QVQLVESGGGLVQAGGSLRLSCAASGSTFGRNAMGWYRQAPGKERELVAAINWSDGSTHYADSVKGRFTISRDNAKNTVYLQMNSLKPEDTAVYYCGADAWSWPVDYNYWGQGTQVTVSS,low polyreactivity
2,QVQLVESGGGLVQAGGSLRLSCAASGSTFGRNTMGWYRQAPGKERELVAAITSCDTTTYADSVKGRFTISLDNAKNTVYIQMNSLKPEDTAVYYCAVDPVRGLDYSWMDYWGQGTQVTVSS,low polyreactivity
3,QVQLVESGGGLVQAGGSLRLSCAASGSTFGRYAMGWYRQAPGKERELVAAIDWSGGSTYYADSVKGRFTISRDNAKNTVYLQMNSLKPEDTAVYYCAAEAYSQYRTPGFDYYYWGQGTQVTVSS,high polyreactivity
4,QVQLVESGGGLVQAGGSLRLSCAASGSTFGRYAMGWYRQAPGKERELVAAISKSGGSTYYADSVKGRFTISRDNEKNTVYLQMNSLNPEDTAVYYCAATTTRYSYEYWGQGTQVTVSS,low polyreactivity
5,QVQLVESGGGLVQAGGSLRLSCAASGSTFGRYAMGWYRQAPGKERELVAAITRSGGRTYYADSVKGRFTISRDNAKNTVYLQLNSLKPEDTAVYYCAAVGNLYYTSHWQYDYWGQGTQVTVSS,high polyreactivity
6,QVQLVESGGGLVQAGGSLRLSCAASGSTFGSNAMGWYRQAPGKEREWVAAISWTGGSTYYADSVKGRFTISRDKAKNPVYVHMNSLKPEETAVYYCNDYGYGYPLYRYDYWGQGTQVTVSS,low polyreactivity
7,QVQLVESGGGLVQAGGSLRLSCAASGSTFGSNAMGWYRQAPGKESELVAAIRWSGGSTYYADSVKGRFTISRDNAKNTVYLQMNSLKPEDTAVYYCNAVYGRQYRGYNYKYYYWGQGTQVTVSS,high polyreactivity
8,QVQLVESGGGLVQAGGSLRLSCAASGSTFGSYAMGWYRHAPGKERELVAAINGGSSTNYADSVKGRFTISRDNAKNTVYLQMNSLKPEDTAVYYCNATETHRLYDSWGQGTQVTVSS,low polyreactivity
9,QVQLVESGGGLVQAGGSLRLSCAASGSTFGSYAMGWYRQAPGKERELVAAISGRGGRTSYADSVKGRFTISRDNAKNTVYLQMNSLKPQDTAVYYCAAKRGGLGVTAASLYDYYFWGQGTQVTVSS,high polyreactivity
10,QVQLVESGGGLVQAGGSLRLSCAASGSTFGSYAMGWYRQAPGKERELVAAITASGGSTYYADSVKGRFTISRDNGKNTVYLQMKSLKPEDTAVYYCAADTTYIPLSIEYDYWGQGTQVTVSS,low polyreactivity
11,QVQLVESGGGLVQAGGSLRLSCAASGSTFGSYAMGWYRQAPGKERELVAAITTSGSSTYYADSVKGRFTISRDNAKNTVYLQMNSLKPEDTAVYYCNARPRRLSYSSYNYWGQGTQVTVSS,high polyreactivity
12,QVQLVESGGGLVQAGGSLRLSCAASGSTFGTYAMGWYRQAPGKERELVAAITRSGGSTYYADSVKGRFTISRDNAKNTVYLQKNSLKPEDTAVYYCAKYVFSYPQSYAYYYWGHGTQVTVSS,high polyreactivity
13,QVQLVESGGGLVQAGGSLRLSCAASGSTFGTYAMGWYRQAPGKERELVAAITRSGGSTYYADSVKGRFTISRDNAKNTVYLQMNSLKPEDTAVYYCAAVSKGYYYWGQGTQVTVSS,high polyreactivity
14,QVQLVESGGGLVQAGGSLRLSCAASGSTFGTYAMGWYRQAPGKERELVATITRRGGRTYYADSVKGRFTISRDNAKNTVYLQMNSLKPEDTAVYYCNAVVRQQGAYDYWGQGTQVTVSS,high polyreactivity
15,QVQLVESGGGLVQAGGSLRLSCAASGSTFGTYVMGWYRQAPGKERELVAAITYSGGSTYYADSVTGRFTISRDNAKNTVYLQMNSLKPEDTAVYYCNADVWSYWYKFDYWGQGTQVTVSS,high polyreactivity
16,QVQLVESGGGLVQAGGSLRLSCAASGSTFGVNAMGWYRQAPGKERELVAAISWSGGSTYYADSVKGRFTISRDNAKNTVYLQMNSLKPEDTAVYYCAADFDYGIWGRYEYWGQGTQVTVSS,high polyreactivity
17,QVQLVESGGGLVQAGGSLRLSCAASGSTFGVNAMVWYRQAPGKERELVAGISVDDSTTYYADSVKGRFTISRDNAKNTVYLQMNSLKPEDTAVYYCAAEREKTLYYLSRFDYWGQGTQVTVSS,low polyreactivity
18,QVQLVESGGGLVQAGGSLRLSCAASGSTFGVNVMGWYRQAPGKERELVAAISRSGGRTYYADSVKGRFTISRDNAKNTVYLQMNSLKPEDTAVYYCNTRGYDYWGQGTQVTVSS,high polyreactivity
19,QVQLVESGGGLVQAGGSLRLSCAASGSTFGVYAMGWYRQAPGKERELVAAISWSSGSTYYADSVKGRFTISRDNAKNTVYLQLNSLKPEDTAVYYCNKDVYGYYRTGPRGYDYWGQGTQVTVSS,high polyreactivity
20,QVQLVESGGGLVQAGGSLRLSCAASGSTFGVYTMGWYIQAPGKERELVAAITKSGGSTYYADSVKGRFTISRDNAKNTVYLQMNSLKPEDTAVYYCNTDYGRYLYYRYGYWGQGTQVTVSS,low polyreactivity
21,QVQLVESGGGLVQAGGSLRLSCAASGSTFGWNAMGRYRQAPGKERELVAAISSSGGSTNYADSVKGRFTISRDNAKNTVYLQMTSLKPEDTAVYYCAKARRPGYGYGYWGQGTQLTVSS,low polyreactivity

row,Sequence,polyreactivity (PSR sort gate)
1,QVQLVESGGGLVQAGGSLRLSCAASGSTFGWYAMGWYRQAPGKERELVAAISYIGGSTYADSVKGRFTISRDNAKNTVYLQMKSLKPEDTAVYYCNAVVYGKSYGSRIYDYWGQGTQVTVSS,high polyreactivity
2,QVQLVESGGGLVQAGGSLRLSCAASGSTFGWYAMGWYRQAPGKERELVAAITSVGSTYYADYVKGRFTISRDNAKNTVYLQMNSLKPEDTAVYYCANRFGYGWAWFGYWGQGTQVTVSS,low polyreactivity
3,QVQLVESGGGLVQAGGSLRLSCAASGSTFGWYAMVWYRQAPGKERELVAAIRNNDGRTYYADSVKGRFTISRDNAKNTVYLQMNSLKPEDTAVYYCNADYRSHYLYDYWGQGTQVTVSS,low polyreactivity
4,QVQLVESGGGLVQAGGSLRLSCAASGSTFGYAMGWYRQAPGKERELVAAITSTGGSTYYADSVKGRFTISRDNAKNTVYLQKNSLKPEDTAVYDCAADAYWIRSRFLYRMRSNSWGQGTQVTVSS,high polyreactivity
5,QVQLVESGGGLVQAGGSLRLSCAASGSTFGYNAMGCYRQAPGKERELVAAISRSGGRTYYADSVKGRFTISRDNAKNTVYLQMNSLIPEDTAVYYCATYYTNKVPARYYWGQGTQVTVSS,high polyreactivity
6,QVQLVESGGGLVQAGGSLRLSCAASGSTFGYNAMGGYRQAPGKERELVAAITWTGASTYYADSVKGRFTISRDNAKNTVYLQMNSLKPEDTAVYYCNLVGYQSMNYWGQGTQVTVSS,low polyreactivity
7,QVQLVESGGGLVQAGGSLRLSCAASGSTFGYNAMGWYRQAPGKERELVAAISRSGGRTYYADSVKGRFTISRDNAKNTVYLQMNSLKPEDTAVYFCATYYTNKVPARYYWGQGTQVTVSS,high polyreactivity
8,QVQLVESGGGLVQAGGSLRLSCAASGSTFGYNTMGWYRQAPGKERELVASITGRGGSTYYADSVKGRFTSSRDNAKNTVYLQMNSLKPEDTAVYYCAAAWKAYRRYGYWGQGTQVTVSS,high polyreactivity
9,QVQLVESGGGLVQAGGSLRLSCAASGSTFGYYAMGWYRHAHGKERELVAAITGSVDSTYYADSVKGRFTISRDNAKNTVYLQMNSLKPEDTAVYYCAADTYSTYWGQGTQVTVSS,low polyreactivity
10,QVQLVESGGGLVQAGGSLRLSCAASGSTFGYYAMGWYRHAPGKERELVAAISWRGGSTYYADSVKGRYTISRDNAKNTVYLQMISLKPEDTAVYYCAAPVGNYGSFDYWGQGTQVTVSS,low polyreactivity
11,QVQLVESGGGLVQAGGSLRLSCAASGSTFGYYAMGWYRQAHGKERELVAAITSGGSTNYADSVKGRFTISRDNAKNTVYLQMNSLKPEDTAVYYCAAADSYRYHLRRYNYWGQGTQVTVSS,low polyreactivity
12,QVQLVESGGGLVQAGGSLRLSCAASGSTFGYYAMGWYRQAPGKERELVAAISYRSGSTYYADSVNGRFTISRDNAKNTVYLQMNSLKPEDTAVYYCAPVIQRQQRYEYWGQGTQVTVSS,high polyreactivity
13,QVQLVESGGGLVQAGGSLRLSCAASGSTFGYYAMGWYRQAPGKERELVAAITGSGGCTYYADSVKGRFTISRDNAKNTVYLQMNSLKPEDTAVYYCATPTKFVRDDYWGQGTQVTVSS,low polyreactivity
14,QVQLVESGGGLVQAGGSLRLSCAASGSTFGYYAMGWYRQAPGKERELVAAITRGASTYYADSVNGRFTISRDNAKNTVYLQMNSLKPDDTAVYYCAFDTWKVQGASSRYRKMYYWGQGTQVTVSS,low polyreactivity
15,QVQLVESGGGLVQAGGSLRLSCAASGSTFGYYAMGWYRQAPGKERELVASITWGGGSTYYADSVKGRFTISRDNAKNTVYLQMNSLNPEDTAVYYCAATILGGTWGYGSYTYYYWGQGTQVTVSS,low polyreactivity
16,QVQLVESGGGLVQAGGSLRLSCAASGSTFGYYAMGWYRQAPGKERELVATMSATGGSTYYADSVKGRFTISRDKAKNTVYLQMNSLKPEDTAVYYCNAEYDRGNEYDYWGQGTQVTVSS,low polyreactivity
17,QVQLVESGGGLVQAGGSLRLSCAASGSTFGYYAMGWYRQAPGKERELVAVITRGGSTYYADSVKGRFTISRDNAKNTVYLQLNSLKPEDTAVYYCNARVQAVHYGYWGQGTQVTVSS,high polyreactivity
18,QVQLVESGGGLVQAGGSLRLSCAASGSTFGYYAMGWYRQAPGKEREVVAALDSSGDTYYADSVKGRFTISRDNAKNTVYFQMNSLKPEDTAVYYCAADFWVSSYWGYGYWGQGTQVTVSS,high polyreactivity
19,QVQLVESGGGLVQAGGSLRLSCAASGSTFGYYAMGWYRQAPGKESELVATINWSGGSTYYADSVKGRFTISRDNAKNTVYLQMNSLKPEDTAVYYCAADPYLQYYWAYDYWGQGTQVTVSS,low polyreactivity
20,QVQLVESGGGLVQAGGSLRLSCAASGSTFGYYAMGWYRQATGKERELVAAISSGGSTSYADSVKGRFTISRDNAKNTVYLQMNSLKPEDTAVYYCNTSYRKKKRYYYWGQGTQVTVSS,high polyreactivity
